# Tested on: Escherichia coli TOP10
# Assay: shrunken log2 fold change of peptide-encoding DNA abundance (4.5 h post-induction vs induction); higher = less antimicrobial activity (less host growth inhibition)
# Conditions: time post-induction: 4.5 h; library: site-saturation at positions 5, 18, 19, 20
# 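Also: peptides expressed intracellularly from a pBAD plasmid library in pooled LB shake-flask culture, induced with 0.3% L-arabinose, DNA abundance read by NGS, three biological replicates, DESeq2 with apeglm shrinkage.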
row,Sequence,shrunken log2 fold change
1,RRIRCRPPRLPRPRPRPEHFPRP,-0.0319
2,RRIRKRPPRLPRPRPRPCITPRP,-0.146
3,RRIRFRPPRLPRPRPRPVQQPRP,0.355
4,RRIRDRPPRLPRPRPRPVVEPRP,0.321
5,RRIRIRPPRLPRPRPRPIIRPRP,-0.453
6,RRIRCRPPRLPRPRPRPCYMPRP,-0.234
7,RRIRMRPPRLPRPRPRPVTRPRP,0.494
8,RRIRQRPPRLPRPRPRPYLIPRP,-0.89
9,RRIRVRPPRLPRPRPRPYSNPRP,-0.676
10,RRIRDRPPRLPRPRPRPWDCPRP,-0.103
11,RRIRWRPPRLPRPRPRPNLSPRP,-0.197
12,RRIRKRPPRLPRPRPRPHPWPRP,0.353
13,RRIRRRPPRLPRPRPRPNCAPRP,0.32
14,RRIRGRPPRLPRPRPRPDKTPRP,0.104
15,RRIRGRPPRLPRPRPRPVGPPRP,0.762
16,RRIRHRPPRLPRPRPRPWKAPRP,0.00938
17,RRIRIRPPRLPRPRPRPDIGPRP,-0.251
18,RRIRLRPPRLPRPRPRPGLLPRP,0.0272
19,RRIRYRPPRLPRPRPRPEKFPRP,-0.0136
20,RRIRVRPPRLPRPRPRPVFTPRP,-0.14
21,RRIRKRPPRLPRPRPRPPHNPRP,0.465
22,RRIRKRPPRLPRPRPRPGPIPRP,0.204
23,RRIRLRPPRLPRPRPRPSCCPRP,-0.212
24,RRIRDRPPRLPRPRPRPPATPRP,0.75
25,RRIRIRPPRLPRPRPRPTMMPRP,-0.0891

row,Sequence,shrunken log2 fold change
1,RRIRIRPPRLPRPRPRPAQLPRP,-0.177
2,RRIRPRPPRLPRPRPRPTYDPRP,-0.212
3,RRIRRRPPRLPRPRPRPRPLPRP,0.559
4,RRIRLRPPRLPRPRPRPHAMPRP,-0.0654
5,RRIRGRPPRLPRPRPRPYPHPRP,0.103
6,RRIRRRPPRLPRPRPRPMHHPRP,0.0725
7,RRIRARPPRLPRPRPRPFDRPRP,0.0972
8,RRIRYRPPRLPRPRPRPAGFPRP,-0.0806
9,RRIRMRPPRLPRPRPRPSRIPRP,0.0606
10,RRIRQRPPRLPRPRPRPYDFPRP,-0.543
11,RRIRPRPPRLPRPRPRPFPWPRP,-0.0429
12,RRIRFRPPRLPRPRPRPNKFPRP,-0.783
13,RRIRNRPPRLPRPRPRPINSPRP,-0.208
14,RRIRSRPPRLPRPRPRPNDMPRP,-0.193
15,RRIRYRPPRLPRPRPRPMDLPRP,-0.0912
16,RRIRMRPPRLPRPRPRPWGRPRP,0.389
17,RRIRTRPPRLPRPRPRPAEGPRP,0.164
18,RRIRDRPPRLPRPRPRPIVKPRP,0.0295
19,RRIRPRPPRLPRPRPRPQEHPRP,-0.225
20,RRIRGRPPRLPRPRPRPVDHPRP,0.193
21,RRIRERPPRLPRPRPRPSQWPRP,-0.176
22,RRIRYRPPRLPRPRPRPQIEPRP,0.0413
23,RRIRSRPPRLPRPRPRPACAPRP,0.482
24,RRIRERPPRLPRPRPRPENIPRP,-0.227
25,RRIRNRPPRLPRPRPRPRNIPRP,-0.168

row,Sequence,shrunken log2 fold change
1,RRIRPRPPRLPRPRPRPMRKPRP,0.365
2,RRIRVRPPRLPRPRPRPVLQPRP,0.164
3,RRIRGRPPRLPRPRPRPRKCPRP,0.666
4,RRIRWRPPRLPRPRPRPSWSPRP,0.862
5,RRIRMRPPRLPRPRPRPFMKPRP,-0.0288
6,RRIRERPPRLPRPRPRPAFHPRP,-0.154
7,RRIRFRPPRLPRPRPRPYPTPRP,-0.324
8,RRIRRRPPRLPRPRPRPNLSPRP,-0.0897
9,RRIRPRPPRLPRPRPRPMFQPRP,-0.241
10,RRIRHRPPRLPRPRPRPNRYPRP,-0.398
11,RRIRIRPPRLPRPRPRPAQRPRP,0.0422
12,RRIRDRPPRLPRPRPRPLWKPRP,0.0179
13,RRIRHRPPRLPRPRPRPYHNPRP,-0.853
14,RRIRERPPRLPRPRPRPMFIPRP,-0.256
15,RRIRMRPPRLPRPRPRPHILPRP,0.113
16,RRIRRRPPRLPRPRPRPWHNPRP,-0.279
17,RRIRPRPPRLPRPRPRPSIFPRP,-0.284
18,RRIRWRPPRLPRPRPRPNKGPRP,-0.346
19,RRIRPRPPRLPRPRPRPQQCPRP,-0.462
20,RRIRQRPPRLPRPRPRPVINPRP,-0.102
21,RRIRYRPPRLPRPRPRPFKYPRP,-0.689
22,RRIRKRPPRLPRPRPRPHYEPRP,-0.0316
23,RRIRMRPPRLPRPRPRPQNNPRP,-0.13
24,RRIRGRPPRLPRPRPRPEVCPRP,0.955
25,RRIRDRPPRLPRPRPRPHEKPRP,-0.0396

row,Sequence,shrunken log2 fold change
1,RRIRCRPPRLPRPRPRPYVMPRP,-0.633
2,RRIRTRPPRLPRPRPRPPNDPRP,-0.133
3,RRIRDRPPRLPRPRPRPQHWPRP,0.122
4,RRIRKRPPRLPRPRPRPRRGPRP,0.799
5,RRIRGRPPRLPRPRPRPNEPPRP,0.154
6,RRIRFRPPRLPRPRPRPDYVPRP,-0.00174
7,RRIRCRPPRLPRPRPRPWVGPRP,-0.167
8,RRIRMRPPRLPRPRPRPSNDPRP,0.184
9,RRIRGRPPRLPRPRPRPSETPRP,0.223
10,RRIRERPPRLPRPRPRPFYYPRP,-0.618
11,RRIRPRPPRLPRPRPRPNILPRP,-0.305
12,RRIRWRPPRLPRPRPRPPLMPRP,0.213
13,RRIRRRPPRLPRPRPRPNQYPRP,-0.506
14,RRIRRRPPRLPRPRPRPHAYPRP,-0.394
15,RRIRKRPPRLPRPRPRPCTYPRP,0.0972
16,RRIRNRPPRLPRPRPRPEKYPRP,-0.805
17,RRIRYRPPRLPRPRPRPQNVPRP,-0.389
18,RRIRFRPPRLPRPRPRPVPEPRP,0.098
19,RRIRQRPPRLPRPRPRPPRHPRP,0.644
20,RRIRMRPPRLPRPRPRPSKFPRP,-0.0303
21,RRIRWRPPRLPRPRPRPNEFPRP,-0.161
22,RRIRDRPPRLPRPRPRPAVPPRP,-0.00426
23,RRIRPRPPRLPRPRPRPDAIPRP,0.148
24,RRIRIRPPRLPRPRPRPQNLPRP,-0.261
25,RRIRHRPPRLPRPRPRPTRTPRP,0.365

row,Sequence,shrunken log2 fold change
1,RRIRMRPPRLPRPRPRPFPHPRP,-0.0309
2,RRIRMRPPRLPRPRPRPDCEPRP,2.29
3,RRIRHRPPRLPRPRPRPRLPPRP,0.131
4,RRIRHRPPRLPRPRPRPEYNPRP,-0.329
5,RRIRYRPPRLPRPRPRPDPKPRP,-0.22
6,RRIRFRPPRLPRPRPRPNSLPRP,-0.189
7,RRIRARPPRLPRPRPRPHRLPRP,-0.0138
8,RRIRVRPPRLPRPRPRPFVPPRP,-0.0478
9,RRIRLRPPRLPRPRPRPHLTPRP,-0.241
10,RRIRTRPPRLPRPRPRPNPHPRP,-0.177
11,RRIRARPPRLPRPRPRPVKKPRP,0.147
12,RRIRGRPPRLPRPRPRPACVPRP,0.81
13,RRIRDRPPRLPRPRPRPGASPRP,1.08
14,RRIRMRPPRLPRPRPRPKQNPRP,1.16
15,RRIRTRPPRLPRPRPRPRTKPRP,0.74
16,RRIRSRPPRLPRPRPRPKGKPRP,0.0401
17,RRIRLRPPRLPRPRPRPLDMPRP,-0.358
18,RRIRQRPPRLPRPRPRPRSEPRP,0.234
19,RRIRWRPPRLPRPRPRPSIKPRP,-0.419
20,RRIRHRPPRLPRPRPRPPYNPRP,-0.642
21,RRIRKRPPRLPRPRPRPFALPRP,0.186
22,RRIRWRPPRLPRPRPRPRWPPRP,0.598
23,RRIRNRPPRLPRPRPRPNYCPRP,0.0133
24,RRIRKRPPRLPRPRPRPYHHPRP,-0.247
25,RRIRVRPPRLPRPRPRPVGAPRP,0.329

row,Sequence,shrunken log2 fold change
1,RRIRLRPPRLPRPRPRPKANPRP,0.0584
2,RRIRERPPRLPRPRPRPNWEPRP,0.0232
3,RRIRQRPPRLPRPRPRPQTFPRP,0.028
4,RRIRYRPPRLPRPRPRPSNQPRP,-0.273
5,RRIRVRPPRLPRPRPRPICWPRP,0.0488
6,RRIRLRPPRLPRPRPRPTSRPRP,0.0104
7,RRIRTRPPRLPRPRPRPGFYPRP,-0.159
8,RRIRCRPPRLPRPRPRPAITPRP,-0.372
9,RRIRYRPPRLPRPRPRPLHTPRP,-0.169
10,RRIRMRPPRLPRPRPRPFWTPRP,0.0652
11,RRIRGRPPRLPRPRPRPFQNPRP,0.31
12,RRIRLRPPRLPRPRPRPEECPRP,0.00698
13,RRIRSRPPRLPRPRPRPNYDPRP,-0.247
14,RRIRSRPPRLPRPRPRPNMNPRP,-0.573
15,RRIRYRPPRLPRPRPRPDLWPRP,-0.0329
16,RRIRLRPPRLPRPRPRPKGHPRP,-0.0999
17,RRIRRRPPRLPRPRPRPNDDPRP,0.0687
18,RRIRSRPPRLPRPRPRPNHTPRP,-0.444
19,RRIRVRPPRLPRPRPRPYQRPRP,-0.0149
20,RRIRCRPPRLPRPRPRPNSMPRP,-0.745
21,RRIRVRPPRLPRPRPRPHRMPRP,-0.457
22,RRIRARPPRLPRPRPRPGALPRP,1.22
23,RRIRYRPPRLPRPRPRPLLPPRP,-0.266
24,RRIRYRPPRLPRPRPRPIIPPRP,-0.825
25,RRIRERPPRLPRPRPRPKFFPRP,-0.0207
